Like-named read-outs stand apart in the source and are kept apart here.
What was measured:
4T1 cells [1] = assay: Cell death/viability in cultures of 4T1 cells; assay type: cell-based, mouse
Experimental: (§1) Cell death/viability was determined by trypan blue dye exclusion, MTT cell viability assay, calcein assay, and anti-active caspase-3 immunoreactivity. In some experiments, cells were seeded in multiple 24-well plates (5×10^4 cells/well) for 24 h then transfected with different vectors using Lipofectamine Plus (Invitrogen): The different analysis occurred after 48 h (HEK-293T cells) or 72 h (4T1 cells) of serum starvation. In some experiments, cells were cultured in the presence of 10 μM caspase inhibitors: caspase-3 inhibitor II (Z-DEVD-FMK, 264155, VWR), caspase-8 inhibitor II (Z-IETD-FMK, 218759, VWR), and caspase-9 inhibitor II ([…], 218776, VWR).
(§2) For trypan blue exclusion experiments, total cells (adherent and floating) were collected by mechanical detachment and medium collection. Cells were pelleted by slow centrifugation and resuspended in serum-free medium. Trypan blue (0.4%) was added in a ratio of 1:1 to the cell suspension, and the percentage of cell death was measured in a hemacytometer by counting, in a blinded fashion and within a given volume, the number of blue (dead) cells and comparing this number to the total number of cells in this same volume.
For caspase staining, after immunostaining with anti-active caspase-3 antibody, the percentage of labelled cells was estimated by comparing the number of active caspase-3-stained cells with the total number of cells present on a given surface.
For assessing cell viability using calcein, cells were plated in OptiMEM medium in 96-well black plates (Greiner Bio-one, Courtaboeuf, France). After 3-6 days in culture, live cells were stained with 0.5 μg/ml green calcein-acetoxymethyl ester (Molecular Probes, Eugene, Oreg.) for 40 minutes at 37° C., and counted using a flash cytometer (Trophos, Marseille, France).
We next used an in vitro assay to evaluate whether SD1 is directly capable of triggering death of tumor cells. […] Similarly, 4T1-SD1 cells, which proliferate at the same rate as 4T1-mock cells during the first 24-48 h in culture, show increased death 72 h after plating, possibly as a result of SD1 accumulation in the culture medium (FIG. 14). […] Thus, SD1 triggers cancer cell death in a PlexinD1 dependent manner.

4T1 cells [2] = details: for Reduction in the volume of the tumor: 4T1-SD1 vs 4T1-mock
Experimental: In vivo studies were conducted in 6-8 weeks old BALB/c ByJ female mice (Charles River Laboratories France). 4.5×10^5 4T1-mock or 4T1-SD1 cells were injected into the right posterior flank or into the mammary fad pad of anaesthetized animals. Tumor size was measured externally every two days using a calliper, and the width (A) and length (B) of the developing tumor was converted to volume using the equation V=0.52×A^2×B. Mice were sacrificed 27 days after injection or when the tumor volume was equal to 300 mm^3.
We next evaluated the effect of SD1 on tumor development and metastasic behavior in a syngenic breast cancer model in Balb/c mice, from which 4T1 cells were derived. In a first series of experiments, 4T1-SD1 or 4T1-mock cells were injected either subcutaneously or in their normal anatomical site, the mammary fat pad. The primary tumors formed from the injected cells were collected after 27 days.

PlexinD1 = PlexinD1 (Homo sapiens, UniProt Q9Y4D7); assay: Co-precipitation in transfected HEK293T cells; assay type: binding; details: data not shown
Experimental: We first set up co-precipitation experiments in transfected HEK293T cells to investigate whether the SD1 interacted with Sema3E ligand. […] Next, we examined the displacement of Sema3E binding to Hek293T cells expressing PlexinD1 by different concentrations of SD1 (from 1-12 nM) present in conditioned medium of HEK293T cells transfected with the SD1 plasmid.

Neuropilin-1 = target: T1, Neuropilin-1 (Homo sapiens, UniProt O14786); assay: Co-precipitation in transfected HEK293T cells; assay type: binding; details: data not shown
T1 construct: expressed in transfected cells; host or cells: HEK293T

MDA-MB-231 cells = assay: Cell death/viability in cultures of MDA-MB-231 cells; assay type: cell-based, human
Experimental: as §1, §2
(§3) For assessing cell viability using calcein, cells were plated in OptiMEM medium in 96-well black plates (Greiner Bio-one, Courtaboeuf, France). […]

Sema3E = target: T2, Sema3E (Mus musculus, UniProt P70275); assay: Co-precipitation in transfected HEK293T cells (His-tagged Sema3E, Nickel resin); assay type: binding; details: myc-tagged SD1, AP-His-tagged Sema3E
T2 construct: expressed in transfected cells; host or cells: HEK293T
T2 sequence (P70275 26-775): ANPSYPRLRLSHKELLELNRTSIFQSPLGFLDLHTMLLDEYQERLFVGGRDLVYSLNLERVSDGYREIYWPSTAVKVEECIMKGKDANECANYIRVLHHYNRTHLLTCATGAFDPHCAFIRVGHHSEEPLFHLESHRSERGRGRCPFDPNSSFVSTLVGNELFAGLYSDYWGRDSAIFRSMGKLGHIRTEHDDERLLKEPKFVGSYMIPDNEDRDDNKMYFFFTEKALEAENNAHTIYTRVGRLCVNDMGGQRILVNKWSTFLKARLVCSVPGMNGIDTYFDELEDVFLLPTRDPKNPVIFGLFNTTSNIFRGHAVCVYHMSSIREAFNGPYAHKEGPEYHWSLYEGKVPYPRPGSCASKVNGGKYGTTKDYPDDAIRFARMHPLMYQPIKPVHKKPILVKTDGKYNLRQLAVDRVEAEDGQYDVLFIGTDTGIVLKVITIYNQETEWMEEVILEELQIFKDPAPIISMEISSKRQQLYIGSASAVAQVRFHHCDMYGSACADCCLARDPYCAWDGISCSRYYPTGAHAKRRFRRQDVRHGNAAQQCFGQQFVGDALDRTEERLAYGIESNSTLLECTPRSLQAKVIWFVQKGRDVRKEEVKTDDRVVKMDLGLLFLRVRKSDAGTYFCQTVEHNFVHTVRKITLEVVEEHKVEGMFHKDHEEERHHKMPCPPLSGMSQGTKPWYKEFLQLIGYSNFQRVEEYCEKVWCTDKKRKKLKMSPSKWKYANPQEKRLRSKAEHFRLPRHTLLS
Excerpt: (A) SD1 is composed of the immunoglobulin (Ig) k-chain secretion signal peptide, followed by the sema domain of mouse PlexinD1 protein (aa 61 to 531) fused in frame with six myc epitope tags (a.a: amino acid). (B) Co-precipitation experiments on HEK 293T cells transfected with the indicated combinations of myc-tagged SD1, Alkaline phosphatase(AP)-Histidine(His)-tagged Sema3E. SD1 can form a complex with Sema3E protein when His-tagged Sema3E is precipitated with a Nickel resin. (C) Displacement curve of Sema3E binding to PlexinD1-expressing HEK 293T cells by increasing concentrations of SD1 (from 1-12 nM). […] (D-G) Quantification of cell death induction by SD1 in cultures of 4T1 (D-E), MDA-MB-231 (F-G) and MCF-7 (F-G) cells measured by trypan blue exclusion (D and F) or by quantification of the percentage of cleaved Caspase-3 positive cells (E and G) in the absence or presence of exogenous Sema3E (100 ng/ml). SD1 is added as conditioned medium from transfected HEK 293T cells at increasing concentration (0 to 20 nM) (D) or fixed concentration (20 nM) (E-G).
HEK293T cells were transfected with AP-Sema3E-his and/or equal amounts of SD1 vectors. […] After incubation with HRP conjugated secondary antibodies, signals were detected with enhanced chemoluminescence system (GE Healthcare, RPN2132). […]

MCF-7 cells = assay: Cell death/viability in cultures of MCF-7 cells; assay type: cell-based, human
Experimental: as §1, §2, §3

VEGFR2 = target: T3, VEGFR2 (Homo sapiens, UniProt P35968); assay: Co-precipitation in transfected HEK293T cells; assay type: binding; details: data not shown
T3 construct: expressed in transfected cells; host or cells: HEK293T

[3] = 15 nM SD1 in conditioned medium, three days

T3 sequence (P35968 20-1356, species assumed): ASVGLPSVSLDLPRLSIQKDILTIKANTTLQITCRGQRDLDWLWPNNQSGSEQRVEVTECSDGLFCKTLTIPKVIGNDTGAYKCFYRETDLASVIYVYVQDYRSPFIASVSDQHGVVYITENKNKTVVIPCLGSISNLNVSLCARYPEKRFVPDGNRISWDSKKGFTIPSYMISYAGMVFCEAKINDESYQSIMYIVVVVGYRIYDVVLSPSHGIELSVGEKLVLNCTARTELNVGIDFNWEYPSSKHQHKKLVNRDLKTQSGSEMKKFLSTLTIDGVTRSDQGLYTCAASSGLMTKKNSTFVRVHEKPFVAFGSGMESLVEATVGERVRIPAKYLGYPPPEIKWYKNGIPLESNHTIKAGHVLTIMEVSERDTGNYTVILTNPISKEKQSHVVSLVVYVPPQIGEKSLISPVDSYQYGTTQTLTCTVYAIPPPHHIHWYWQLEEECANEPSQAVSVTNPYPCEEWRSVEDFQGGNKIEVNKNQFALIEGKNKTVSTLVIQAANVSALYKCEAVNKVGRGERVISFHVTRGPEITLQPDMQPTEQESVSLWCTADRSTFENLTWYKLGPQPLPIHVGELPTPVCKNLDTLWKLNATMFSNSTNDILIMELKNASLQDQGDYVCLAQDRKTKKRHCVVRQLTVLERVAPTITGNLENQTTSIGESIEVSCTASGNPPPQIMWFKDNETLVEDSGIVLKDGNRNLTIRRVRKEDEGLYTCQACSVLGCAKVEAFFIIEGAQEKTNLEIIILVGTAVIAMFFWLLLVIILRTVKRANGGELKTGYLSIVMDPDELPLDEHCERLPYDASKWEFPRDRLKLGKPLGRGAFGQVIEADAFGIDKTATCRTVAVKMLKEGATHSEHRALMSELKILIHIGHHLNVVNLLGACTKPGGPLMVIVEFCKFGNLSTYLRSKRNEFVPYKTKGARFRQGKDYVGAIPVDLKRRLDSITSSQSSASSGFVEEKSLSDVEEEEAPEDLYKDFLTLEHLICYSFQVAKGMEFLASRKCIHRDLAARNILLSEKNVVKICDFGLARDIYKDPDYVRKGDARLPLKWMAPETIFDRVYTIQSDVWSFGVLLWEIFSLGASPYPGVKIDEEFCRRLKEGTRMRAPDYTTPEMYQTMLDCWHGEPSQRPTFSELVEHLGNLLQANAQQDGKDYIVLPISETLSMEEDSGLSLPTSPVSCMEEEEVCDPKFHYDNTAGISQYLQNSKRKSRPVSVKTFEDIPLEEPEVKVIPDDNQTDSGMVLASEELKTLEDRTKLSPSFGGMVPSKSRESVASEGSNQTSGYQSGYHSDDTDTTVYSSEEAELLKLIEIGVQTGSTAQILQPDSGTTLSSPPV
Chain of PlexinD1 (Q9Y4D7 47-1925, species assumed): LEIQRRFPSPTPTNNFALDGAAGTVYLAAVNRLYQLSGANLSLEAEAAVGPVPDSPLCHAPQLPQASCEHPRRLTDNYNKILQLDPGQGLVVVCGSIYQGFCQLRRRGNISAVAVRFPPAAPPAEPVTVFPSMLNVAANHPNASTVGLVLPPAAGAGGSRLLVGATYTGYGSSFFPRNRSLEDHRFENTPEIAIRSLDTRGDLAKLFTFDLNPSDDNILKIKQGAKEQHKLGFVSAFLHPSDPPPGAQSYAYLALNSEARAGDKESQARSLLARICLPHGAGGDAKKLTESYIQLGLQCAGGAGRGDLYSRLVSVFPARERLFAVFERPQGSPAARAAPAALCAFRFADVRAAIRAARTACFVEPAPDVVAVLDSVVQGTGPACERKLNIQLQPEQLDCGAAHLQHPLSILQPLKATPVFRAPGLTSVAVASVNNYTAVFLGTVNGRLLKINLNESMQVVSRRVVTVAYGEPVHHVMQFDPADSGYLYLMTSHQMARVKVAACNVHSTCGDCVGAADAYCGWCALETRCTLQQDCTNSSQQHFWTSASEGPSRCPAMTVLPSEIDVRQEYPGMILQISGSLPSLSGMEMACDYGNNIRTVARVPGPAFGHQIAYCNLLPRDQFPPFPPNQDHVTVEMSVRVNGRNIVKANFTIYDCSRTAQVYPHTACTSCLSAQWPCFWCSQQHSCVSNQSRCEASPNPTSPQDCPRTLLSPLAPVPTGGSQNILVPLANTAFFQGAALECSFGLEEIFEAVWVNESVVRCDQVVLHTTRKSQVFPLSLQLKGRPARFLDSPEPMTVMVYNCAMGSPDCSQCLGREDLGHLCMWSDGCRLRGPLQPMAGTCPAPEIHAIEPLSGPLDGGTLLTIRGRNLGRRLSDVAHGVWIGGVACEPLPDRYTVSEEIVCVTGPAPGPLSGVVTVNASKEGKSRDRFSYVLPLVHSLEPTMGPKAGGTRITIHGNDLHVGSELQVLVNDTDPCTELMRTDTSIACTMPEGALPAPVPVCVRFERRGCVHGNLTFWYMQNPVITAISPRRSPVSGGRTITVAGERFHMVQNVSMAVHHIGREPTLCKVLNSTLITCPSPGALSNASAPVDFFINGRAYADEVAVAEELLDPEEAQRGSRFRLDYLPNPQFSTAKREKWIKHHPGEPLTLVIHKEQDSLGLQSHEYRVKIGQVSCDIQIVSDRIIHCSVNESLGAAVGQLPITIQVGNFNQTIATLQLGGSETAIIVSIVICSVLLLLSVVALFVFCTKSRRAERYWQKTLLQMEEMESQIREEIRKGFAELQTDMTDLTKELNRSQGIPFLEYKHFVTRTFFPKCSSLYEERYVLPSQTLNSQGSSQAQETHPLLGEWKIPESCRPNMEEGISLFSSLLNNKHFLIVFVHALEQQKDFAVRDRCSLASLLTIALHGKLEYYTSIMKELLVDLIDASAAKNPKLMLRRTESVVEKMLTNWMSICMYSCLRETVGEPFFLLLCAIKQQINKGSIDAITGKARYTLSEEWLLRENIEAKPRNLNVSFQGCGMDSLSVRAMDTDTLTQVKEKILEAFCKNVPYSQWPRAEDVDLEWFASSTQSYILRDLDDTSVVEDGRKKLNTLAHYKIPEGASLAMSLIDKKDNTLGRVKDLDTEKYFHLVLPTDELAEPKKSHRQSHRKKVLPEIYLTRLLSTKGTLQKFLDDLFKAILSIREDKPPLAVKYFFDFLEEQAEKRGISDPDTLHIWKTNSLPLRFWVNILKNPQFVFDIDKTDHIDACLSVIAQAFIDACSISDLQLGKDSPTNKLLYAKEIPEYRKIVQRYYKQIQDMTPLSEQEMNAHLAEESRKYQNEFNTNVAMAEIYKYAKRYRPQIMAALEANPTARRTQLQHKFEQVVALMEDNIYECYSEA
T1 sequence (O14786 22-923, species assumed): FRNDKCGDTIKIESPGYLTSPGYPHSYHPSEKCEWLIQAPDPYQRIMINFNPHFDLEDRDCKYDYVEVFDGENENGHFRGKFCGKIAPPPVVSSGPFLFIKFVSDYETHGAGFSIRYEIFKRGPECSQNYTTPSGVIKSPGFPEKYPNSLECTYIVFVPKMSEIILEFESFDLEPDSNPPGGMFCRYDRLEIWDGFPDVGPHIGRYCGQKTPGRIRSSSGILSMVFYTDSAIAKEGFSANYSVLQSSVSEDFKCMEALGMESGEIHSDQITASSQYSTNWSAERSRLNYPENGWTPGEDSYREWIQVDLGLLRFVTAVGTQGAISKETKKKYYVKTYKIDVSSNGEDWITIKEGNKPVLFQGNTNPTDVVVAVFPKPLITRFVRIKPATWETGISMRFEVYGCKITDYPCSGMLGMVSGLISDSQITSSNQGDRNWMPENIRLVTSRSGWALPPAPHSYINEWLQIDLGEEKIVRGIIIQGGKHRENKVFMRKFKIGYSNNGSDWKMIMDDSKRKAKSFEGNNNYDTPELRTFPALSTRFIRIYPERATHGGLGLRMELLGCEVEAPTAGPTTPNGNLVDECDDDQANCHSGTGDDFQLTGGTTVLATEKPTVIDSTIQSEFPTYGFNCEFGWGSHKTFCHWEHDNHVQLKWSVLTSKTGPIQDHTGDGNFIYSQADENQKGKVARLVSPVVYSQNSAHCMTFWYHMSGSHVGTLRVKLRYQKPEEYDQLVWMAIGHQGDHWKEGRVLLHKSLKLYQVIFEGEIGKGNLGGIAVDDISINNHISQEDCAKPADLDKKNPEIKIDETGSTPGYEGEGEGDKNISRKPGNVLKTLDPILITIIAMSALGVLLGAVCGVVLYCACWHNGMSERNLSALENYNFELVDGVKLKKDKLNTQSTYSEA

B1: SD1: Ig k-chain secretion signal peptide, sema domain of mouse PlexinD1 protein (aa 61 to 531), fused with six myc epitope tags (protein)
chain: TNNFALDGTAGTVYLAAVNRLYQLSSANLSLEAEATVGPVPDSPLCHAPQLPQASCEHPRRLTDNYNKILQLDPGQGLVVACGSIYQGLCQLRRRGNISALAVSFPPAAPTAEPVTVFPSMLNVAANHPNASTVGLVLPPTSGTGGSRLLVGATYTGFGSAFFPRNRSLEDHRFENTPEIAIRSLDARGDLAKLFTFDLNPSDDNILKIKQGAKEQHKLGFVRAFLHPAVPPHSAQPYAYLALNSEARAGDKDSQARSLLARICLPRGAGGDAKKLTESYIQLGLQCAGGAGRGDLYSRLVSVFPAREQFFAVFERPQGAPGARNAPAALCAFRFDDVQAAIRAARTACFVEPAPDVVAVLDSVVQGTGPACESKRNIQLQPEQLDCGAAHLQHPLTILQPLRASPVFRAPGLTAVAVASANNYTAVFLGTATGRLLKISLNESMQVVSRRVLTVAYGEPVHHVMQFDPMD
modifications: left off: small tags and cut ends
- Cell death (trypan blue exclusion, cleaved Caspase-3 positive cells) (4T1 cells [1]; SD1 conditioned medium, 0 to 20 nM or 20 nM): induces cell death
- Viability, calcein assay (4T1 cells [1]; SD1 purified from conditioned medium): decreased viability
- Cell death, trypan blue-exclusion (4T1 cells [1]; recombinant SD1 in conditioned medium): induces cell death
- Time until tumors reached an average volume of 300 mm^3 (4T1 cells [2]; 4T1-SD1, fat pad (4T1-mock: 31±3 dpi)): 50±6 dpi
- Time until tumors reached an average volume of 300 mm^3 (4T1 cells [2]; 4T1-SD1, subcutaneous (4T1-mock: 46±4 dpi)): 60±3 dpi
- Tumor cell proliferation (Ki67 immunostaining) (4T1 cells [2]; 4T1-SD1 vs 4T1-mock tumors): unchanged
- Number of metastatic nodules at the surface of the lungs (4T1 cells [2]; 27 days, subcutaneous and fat pad transplantations, vs control cells): decrease
- SD1-induced death of stromal cells in tumors (4T1 cells [2]; cleaved Caspase-3/-9 immunostaining): not susceptible
- Decreased total tumor weight (4T1 cells [2]; fat pad injections, 27 days): 56%
- Reduction in the volume of the tumor (4T1 cells [2]; mammary fat pad injection, 27 days): 56%
- Reduction in the volume of the tumor (4T1 cells [2]; subcutaneous injection, 27 days): 60%
- Decreased total tumor weight (4T1 cells [2]; subcutaneous injections, 27 days): 60%
- Concentration of blood vessels in primary tumors (PECAM-1) (4T1 cells [2]; subcutaneous, 4T1-SD1 vs control tumors): did not significantly affect
- Increase in tumor cell death (cleaved Caspase-3 or Caspase-9 positive 4T1 cells) in primary tumors (4T1 cells [2]; subcutaneous, 27 days, 4T1-SD1 vs control cells): ~3 fold
- Average number of metastatic nodules per lung (4T1 cells [2]; tumors of similar size (300 mm^3), subcutaneous and fat pad): reduction
- Direct interaction with PlexinD1 (PlexinD1): did not directly interact
- Direct interaction with Neuropilin-1 (Neuropilin-1): did not directly interact
- Cell survival, calcein assay (MDA-MB-231 cells; [3]): reduction in cell survival
- Cell death (trypan blue exclusion, cleaved Caspase-3 positive cells) (MDA-MB-231 cells; SD1 conditioned medium 20 nM): induces cell death
- Interaction with Sema3E ligand (co-precipitation) (Sema3E): physically associated with Sema3E
- Cell survival, calcein assay (MCF-7 cells; [3]): reduction in cell survival
- Cell death (trypan blue exclusion, cleaved Caspase-3 positive cells) (MCF-7 cells; SD1 conditioned medium 20 nM): induces cell death
- Direct interaction with VEGFR2 (VEGFR2): did not directly interact
